Experimental data: patent publication US20090166224A1 (published 2009)

What was measured:
Test in all cases: human serum on Con A/WGA/Jacalin column, lectin-specific displacer fraction, LC-MS/MS; grade = SEQUEST rank group (+ = ranks 1-5, ++++ = 16-20)
[1] = target: T1, PLASMA PROTEASE C1 INHIBITOR (human, UniProt P05155 23-500)
T1 construct: from human serum; also called IC1
T1 sequence (looked up): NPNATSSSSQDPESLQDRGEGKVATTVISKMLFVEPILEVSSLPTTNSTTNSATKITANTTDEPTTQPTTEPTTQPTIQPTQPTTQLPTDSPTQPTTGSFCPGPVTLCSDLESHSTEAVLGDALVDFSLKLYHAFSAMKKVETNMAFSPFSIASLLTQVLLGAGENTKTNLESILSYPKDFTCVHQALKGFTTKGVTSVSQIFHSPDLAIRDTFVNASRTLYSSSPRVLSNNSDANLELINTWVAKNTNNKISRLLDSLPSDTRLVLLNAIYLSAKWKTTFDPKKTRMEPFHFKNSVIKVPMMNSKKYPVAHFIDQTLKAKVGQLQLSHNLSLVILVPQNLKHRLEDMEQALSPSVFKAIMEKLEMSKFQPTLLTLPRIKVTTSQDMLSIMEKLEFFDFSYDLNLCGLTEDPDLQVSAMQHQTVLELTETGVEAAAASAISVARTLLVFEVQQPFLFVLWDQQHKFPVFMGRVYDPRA

IG MU CHAIN C REGION = target: T2, IG MU CHAIN C REGION (human, UniProt P01871-1 1-453)
T2 construct: domain: C region; Polyclonal serum IgM, identified through its constant region; variable regions and light chains not defined
T2 heavy (looked up): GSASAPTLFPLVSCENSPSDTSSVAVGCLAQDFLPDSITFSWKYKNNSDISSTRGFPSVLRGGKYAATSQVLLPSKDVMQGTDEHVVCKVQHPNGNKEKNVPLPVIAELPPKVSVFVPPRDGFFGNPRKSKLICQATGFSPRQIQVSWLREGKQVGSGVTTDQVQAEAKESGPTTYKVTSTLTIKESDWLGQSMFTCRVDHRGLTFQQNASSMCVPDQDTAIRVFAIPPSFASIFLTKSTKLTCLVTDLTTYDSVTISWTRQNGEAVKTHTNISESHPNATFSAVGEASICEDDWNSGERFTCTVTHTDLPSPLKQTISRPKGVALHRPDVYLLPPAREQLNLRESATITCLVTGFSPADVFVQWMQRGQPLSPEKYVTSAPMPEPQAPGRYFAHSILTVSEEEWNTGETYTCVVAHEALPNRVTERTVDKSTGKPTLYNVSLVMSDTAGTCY

VITRONECTIN = target: T3, VITRONECTIN (human, UniProt P04004 20-478)
T3 construct: from human serum; also called VTNC

ALPHA-2-MACROGLOBULIN = target: T4, ALPHA-2-MACROGLOBULIN (human, UniProt P01023 24-1474)
T4 construct: also called A2MG; α2-macroglobulin
T4 sequence (looked up): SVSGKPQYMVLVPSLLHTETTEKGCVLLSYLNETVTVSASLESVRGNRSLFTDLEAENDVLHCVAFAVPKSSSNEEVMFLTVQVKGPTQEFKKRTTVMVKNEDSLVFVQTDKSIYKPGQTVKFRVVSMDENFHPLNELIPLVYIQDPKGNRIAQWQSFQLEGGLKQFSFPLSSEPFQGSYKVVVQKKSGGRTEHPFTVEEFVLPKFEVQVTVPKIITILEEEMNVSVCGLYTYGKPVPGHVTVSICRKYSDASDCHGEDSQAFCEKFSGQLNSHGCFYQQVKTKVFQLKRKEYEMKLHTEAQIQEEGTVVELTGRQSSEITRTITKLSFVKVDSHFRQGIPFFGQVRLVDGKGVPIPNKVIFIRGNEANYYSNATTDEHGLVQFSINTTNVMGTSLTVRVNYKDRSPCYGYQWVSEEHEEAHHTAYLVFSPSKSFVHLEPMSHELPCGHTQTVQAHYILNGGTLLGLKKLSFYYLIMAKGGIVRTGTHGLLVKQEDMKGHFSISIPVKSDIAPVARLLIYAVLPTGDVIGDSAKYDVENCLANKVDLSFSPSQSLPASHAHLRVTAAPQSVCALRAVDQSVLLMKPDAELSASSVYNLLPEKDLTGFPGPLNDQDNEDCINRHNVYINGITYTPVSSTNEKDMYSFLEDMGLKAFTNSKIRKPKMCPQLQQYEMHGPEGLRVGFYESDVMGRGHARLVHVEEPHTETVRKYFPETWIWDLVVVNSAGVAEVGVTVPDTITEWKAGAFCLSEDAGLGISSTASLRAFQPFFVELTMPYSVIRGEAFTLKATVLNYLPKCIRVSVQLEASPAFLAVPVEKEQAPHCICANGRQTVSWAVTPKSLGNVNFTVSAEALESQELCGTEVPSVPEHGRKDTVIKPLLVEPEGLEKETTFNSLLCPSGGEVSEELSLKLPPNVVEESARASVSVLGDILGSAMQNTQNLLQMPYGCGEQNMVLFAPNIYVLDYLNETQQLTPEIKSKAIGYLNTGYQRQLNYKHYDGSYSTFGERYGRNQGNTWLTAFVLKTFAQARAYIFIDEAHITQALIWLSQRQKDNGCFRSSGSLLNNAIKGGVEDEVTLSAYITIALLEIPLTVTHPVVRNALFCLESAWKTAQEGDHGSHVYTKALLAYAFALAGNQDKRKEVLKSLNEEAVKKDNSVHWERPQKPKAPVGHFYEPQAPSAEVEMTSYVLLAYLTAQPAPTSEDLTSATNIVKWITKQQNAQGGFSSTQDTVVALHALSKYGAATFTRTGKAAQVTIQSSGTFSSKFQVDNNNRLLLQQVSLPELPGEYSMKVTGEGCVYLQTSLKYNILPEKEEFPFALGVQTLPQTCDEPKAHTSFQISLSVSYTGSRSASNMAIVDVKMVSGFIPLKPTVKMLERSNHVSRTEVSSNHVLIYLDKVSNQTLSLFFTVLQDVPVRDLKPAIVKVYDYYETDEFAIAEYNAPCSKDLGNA

T3 sequence (P04004 20-478 limits assumed): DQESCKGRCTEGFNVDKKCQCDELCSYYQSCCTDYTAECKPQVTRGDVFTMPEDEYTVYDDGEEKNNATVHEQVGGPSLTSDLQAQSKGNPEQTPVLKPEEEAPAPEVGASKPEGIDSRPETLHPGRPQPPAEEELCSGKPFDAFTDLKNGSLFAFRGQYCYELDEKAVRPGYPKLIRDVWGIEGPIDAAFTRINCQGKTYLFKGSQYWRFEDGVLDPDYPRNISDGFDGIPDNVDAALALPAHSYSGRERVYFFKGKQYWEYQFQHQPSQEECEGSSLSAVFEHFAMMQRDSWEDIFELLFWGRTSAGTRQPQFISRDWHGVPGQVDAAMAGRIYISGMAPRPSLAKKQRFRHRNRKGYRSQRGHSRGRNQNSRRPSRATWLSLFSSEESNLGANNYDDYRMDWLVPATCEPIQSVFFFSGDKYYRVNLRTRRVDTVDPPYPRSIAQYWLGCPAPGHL

B1: wheat germ agglutinin (WGA), agarose-bound (other, UniProt P10968 27-197, looked up)
chain: QRCGEQGSNMECPNNLCCSQYGYCGMGGDYCGKGCQNGACWTSKRCGSQAGGATCTNNQCCSQYGYCGFGAEYCGAGCQGGPCRADIKCGSQAGGKLCPNNLCCSQWGFCGLGSEFCGGGCQSGACSTDKPCGKDAGGRVCTNNYCCSKWGSCGIGPGYCGAGCQSGGCDG
modifications: immobilized on agarose
notes: Lectin; released with N-acetyl-glucosamine; Coated on the plate in the lectin ELISA
[1]
  SEQUEST ranking (relative abundance in the WGA displacement fraction): 16 to 20 rank
IG MU CHAIN C REGION
  SEQUEST ranking (relative abundance in the WGA displacement fraction): 6 to 10 rank
VITRONECTIN
  SEQUEST ranking (relative abundance in the WGA displacement fraction): 6 to 10 rank
ALPHA-2-MACROGLOBULIN
  SEQUEST ranking (relative abundance in the WGA displacement fraction): 1 to 5 rank
